Article PMC7408065, “Heterodimeric Radiotracer Targeting PSMA and GRPR for Imaging of Prostate Cancer—Optimization of the Affinity towards PSMA by Linker Modification in Murine Model” (Pharmaceutics, 2020)
Numbered stars: 1 amine (or outer) side, 2 acyl side, 3 side chain; on linkers, the order of the positions; unused ones are H or OH. Square brackets hold non-standard residues; d marks the D form. Peptide text beside a SMILES is read from it. * marks the point of attachment. NOTA = O=C(O)CN1CCN(CC(=O)O)CCN(CC(=O)*)CC1; γGlu = O=C(O)[C@H](CCC(=O)[*:2])N[*:1]; Sta = CC(C)C[C@H](N)[C@@H](O)CC(=O)O; AEEA = NCCOCCOCC(=O)O; Aoc = NCCCCCCCC(=O)O; CO = O=C([*:1])[*:2]

Assays:
[1] = Distribution coefficient (LogD), n-octanol/water; assay type: physicochemical; conditions: indium-111 labeled compound
Description: The tube was vortexed, centrifuged and fractions (100 µL) from each phase were collected and activity was measured using a gamma counter. The experiment was repeated twice for each compound.

[2] = in vivo; set-up: species or system BALB/c nu/nu mice; conditions: BALB/c nu/nu, mouse, 40 pmol/animal, total radioactivity; for tissue uptake at 1 h: Activity uptake; for tissue to tissue ratio at 1 h / tissue to tissue ratio at 3 h / tissue to tissue ratio at 24 h: Tumor-to-organ ratio
Description: (§1) The in vivo experiments were performed using BALB/c nu/nu mice bearing PC3-pip xenografts. The mice were implanted with 5 × 10^6 PC3-pip cells 12 days prior to the experiments. In vivo experiments were planned and performed in accordance with the national legislation on laboratory animals’ protection and were approved by the Ethics Committee for Animal Research in Uppsala, Sweden. PC3-pip tumor-bearing mice were injected with 40 pmol (30 kBq) of [^111In]In-BQ7812 per mouse. Groups were also co-injected with 7.5 nmol of non-labeled NOTA-PEG4-RM26 and/or 7.5 nmol of non-labeled PSMA-11 to block GRPR and/or PSMA. Mice were euthanized at 1, 3 and 24 h pi. Organs of interest were collected, weighed and the activity uptake in each organ was measured using a gamma counter.

[3] = test system: PC3-pip xenografts; experiment: in vivo; set-up: species or system BALB/c nu/nu mice; conditions: mouse
Description: as §1

## CC(C)C[C@H](NC(=O)C[C@H](O)[C@H](CC(C)C)NC(=O)[C@H](Cc1c[nH]cn1)NC(=O)CNC(=O)[C@@H](NC(=O)[C@H](C)NC(=O)[C@H](Cc1c[nH]c2ccccc12)NC(=O)[C@H](CCC(N)=O)NC(=O)[C@@H](Cc1ccccc1)NC(=O)COCCOCCNC(=O)[C@H](CCCCNC(=O)CN1CCN(CC(=O)O)CCN(CC(=O)O)CC1)NC(=O)[C@H](Cc1ccccc1)NC(=O)CCCCCCCNC(=O)CC[C@H](NC(=O)N[C@@H](CCC(=O)O)C(=O)O)C(=O)O)C(C)C)C(N)=O [BQ7812] ({Glu-CO-γGlu-Aoc}-FK(NOTA)[AEEA][dF]QWAVGH[Sta]L-NH2)
[1]
  logD: -1.44

## CC(C)C[C@H](NC(=O)C[C@H](O)[C@H](CC(C)C)NC(=O)[C@H](Cc1c[nH]cn1)NC(=O)CNC(=O)[C@@H](NC(=O)[C@H](C)NC(=O)[C@H](Cc1c[nH]c2ccccc12)NC(=O)[C@H](CCC(N)=O)NC(=O)[C@@H](Cc1ccccc1)NC(=O)COCCOCCNC(=O)[C@H](CCCCNC(=O)CN1CCN(CC(=O)O)CCN(CC(=O)O)CC1)NC(=O)[C@H](Cc1ccccc1)NC(=O)CCCCCCCNC(=O)CC[C@H](NC(=O)N[C@@H](CCC(=O)O)C(=O)O)C(=O)O)C(C)C)C(N)=O [[^111In]In-BQ7812, metal not drawn] ({Glu-CO-γGlu-Aoc}-FK(NOTA)[AEEA][dF]QWAVGH[Sta]L-NH2)
[2]; Lung
  tissue uptake at 1 h: 1.34 %ID/g
  tissue to tissue ratio at 1 h: 12.3 ± 1.34
  tissue to tissue ratio at 3 h: 25.3 ± 10
  tissue to tissue ratio at 24 h: 13.9 ± 1.65
[2]; Pancreas
  tissue uptake at 1 h: 5.83 %ID/g
  tissue to tissue ratio at 1 h: 2.77 ± 0.43
  tissue to tissue ratio at 3 h: 10.9 ± 3.05
  tissue to tissue ratio at 24 h: 8.19 ± 1.92
[2]; Blood
  tissue to tissue ratio at 1 h: 11.7 ± 2.3
  tissue to tissue ratio at 3 h: 55.5 ± 15.6
  tissue to tissue ratio at 24 h: 68.9 ± 10.4
[2]; Bone
  tissue to tissue ratio at 1 h: 24.5 ± 3.25
  tissue to tissue ratio at 3 h: 35.1 ± 25.7
  tissue to tissue ratio at 24 h: 10.9 ± 2.46
[2]; Kidney
  tissue to tissue ratio at 1 h: 0.27 ± 0.07
  tissue to tissue ratio at 3 h: 0.39 ± 0.09
  tissue to tissue ratio at 24 h: 0.18 ± 0.02
[2]; Liver
  tissue to tissue ratio at 1 h: 4.56 ± 0.77
  tissue to tissue ratio at 3 h: 3.08 ± 1
  tissue to tissue ratio at 24 h: 1.04 ± 0.15
[2]; Muscle
  tissue to tissue ratio at 1 h: 41 ± 7.76
  tissue to tissue ratio at 3 h: 53.3 ± 24.4
  tissue to tissue ratio at 24 h: 23.6 ± 4.58
[2]; Salivary glands
  tissue to tissue ratio at 1 h: 18.7 ± 2.6
  tissue to tissue ratio at 3 h: 20.6 ± 7.98
  tissue to tissue ratio at 24 h: 7.39 ± 1.88
[2]; Small intestine
  tissue to tissue ratio at 1 h: 9.31 ± 1.8
  tissue to tissue ratio at 3 h: 13.4 ± 3.68
  tissue to tissue ratio at 24 h: 5.52 ± 2.17
[2]; Spleen
  tissue to tissue ratio at 1 h: 11.5 ± 2.37
  tissue to tissue ratio at 3 h: 20.8 ± 5.1
  tissue to tissue ratio at 24 h: 6.32 ± 1.59
[2]; Stomach
  tissue to tissue ratio at 1 h: 12.5 ± 2.36
  tissue to tissue ratio at 3 h: 18.3 ± 2.8
  tissue to tissue ratio at 24 h: 10.5 ± 2.28
[3]
  tumor-to-liver ratio: over five
